Measured values as given in PMC3575576.

Target: E47 (mouse (endogenous in palatal shelves)) (UniProt P15806)
UniProt P15806, sequence (P15806 whole entry): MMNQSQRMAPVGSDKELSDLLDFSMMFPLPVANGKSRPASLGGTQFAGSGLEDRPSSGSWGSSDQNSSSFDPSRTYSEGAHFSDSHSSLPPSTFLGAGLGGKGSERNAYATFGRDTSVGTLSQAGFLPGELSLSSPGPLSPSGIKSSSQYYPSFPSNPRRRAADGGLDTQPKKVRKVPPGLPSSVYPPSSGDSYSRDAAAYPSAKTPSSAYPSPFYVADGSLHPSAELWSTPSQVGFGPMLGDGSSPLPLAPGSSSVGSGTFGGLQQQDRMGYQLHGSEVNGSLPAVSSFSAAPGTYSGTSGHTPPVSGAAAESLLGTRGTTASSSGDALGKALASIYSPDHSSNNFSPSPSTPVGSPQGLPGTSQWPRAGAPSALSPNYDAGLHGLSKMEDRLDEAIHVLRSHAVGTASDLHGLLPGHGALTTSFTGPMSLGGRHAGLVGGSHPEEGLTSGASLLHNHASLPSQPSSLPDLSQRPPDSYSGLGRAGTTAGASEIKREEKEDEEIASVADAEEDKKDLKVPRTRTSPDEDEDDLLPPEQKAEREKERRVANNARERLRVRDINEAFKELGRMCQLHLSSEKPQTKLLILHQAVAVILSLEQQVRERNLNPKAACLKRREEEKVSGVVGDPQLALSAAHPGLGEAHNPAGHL

luciferase activity of the Snail1 promoter (1.7KSnLuc) in MDCK cells transfected with forced Twist1/E47 (T/E) heterodimers, compared with cells transfected with Twist1 alone: 2 fold
B1: Twist1 (natural protein)
chain: MMQDVSSSPVSPADDSLSNSEEEPDRQQPASGKRGARKRRSSRRSAGGSAGPGGATGGGIGGGDEPGSPAQGKRGKKSAGGGGGGGAGGGGGGGGGSSSGGGSPQSYEELQTQRVMANVRERQRTQSLNEAFAALRKIIPTLPSDKLSKIQTLKLAARYIDFLYQVLQSDELDSKMASCSYVAHERLSYAFSVWRMEGAWSMSASH
